Results: PMC5955432

Biological target: Skp1-FBW7 complex (UniProt Q969H0)
Assay: ITC; MicroCal VP-ITC, 30°C; cell: 15 μM purified Skp1-FBW7 complex in 50 mM phosphate buffer, pH 7.4; syringe: 321 μM FIRΔexon2; 10 μL injections, 20 s, 150 s delay

UniProt Q969H0, sequence (Q969H0 whole entry, chain 1 of 2): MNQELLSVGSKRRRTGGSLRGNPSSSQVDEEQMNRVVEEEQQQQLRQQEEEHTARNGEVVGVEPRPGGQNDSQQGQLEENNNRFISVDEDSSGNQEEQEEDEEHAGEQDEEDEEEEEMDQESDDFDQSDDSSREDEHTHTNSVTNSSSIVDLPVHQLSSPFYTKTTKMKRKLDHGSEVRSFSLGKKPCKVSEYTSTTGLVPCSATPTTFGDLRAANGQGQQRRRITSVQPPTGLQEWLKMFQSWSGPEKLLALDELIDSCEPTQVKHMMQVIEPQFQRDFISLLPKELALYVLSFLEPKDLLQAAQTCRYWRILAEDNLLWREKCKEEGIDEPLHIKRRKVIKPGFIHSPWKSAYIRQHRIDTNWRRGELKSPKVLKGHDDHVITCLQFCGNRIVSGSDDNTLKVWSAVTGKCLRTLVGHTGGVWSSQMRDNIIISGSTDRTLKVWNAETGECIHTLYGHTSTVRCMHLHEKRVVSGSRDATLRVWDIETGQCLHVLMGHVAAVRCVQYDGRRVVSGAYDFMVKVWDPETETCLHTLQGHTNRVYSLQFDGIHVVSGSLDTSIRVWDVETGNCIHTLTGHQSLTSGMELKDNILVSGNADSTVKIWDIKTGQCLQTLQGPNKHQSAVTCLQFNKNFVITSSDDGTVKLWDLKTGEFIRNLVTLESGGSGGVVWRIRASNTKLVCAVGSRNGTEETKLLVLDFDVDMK
UniProt Q969H0, sequence (P63208 whole entry, chain 2 of 2, further chain): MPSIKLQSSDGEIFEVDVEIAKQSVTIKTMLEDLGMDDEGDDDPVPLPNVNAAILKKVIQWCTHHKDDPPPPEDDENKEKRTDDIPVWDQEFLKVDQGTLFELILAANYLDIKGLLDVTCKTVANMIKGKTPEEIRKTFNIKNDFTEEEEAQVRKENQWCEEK

Substance: FIRΔexon2 (alternative splicing variant of far upstream element binding protein 1 (FUBP1) interacting repressor, FIR / PUF60, lacking exon 2) (natural protein)
- Ka: > 1e+08 M⁻¹
